Patent publication US20120301477A1

Molecular target: CCR9 (chemokine (C-C motif) receptor 9) (human) (UniProt P51686)
Assay: cell-based or functional assay

Chain of UniProt P51686 (P51686 whole entry): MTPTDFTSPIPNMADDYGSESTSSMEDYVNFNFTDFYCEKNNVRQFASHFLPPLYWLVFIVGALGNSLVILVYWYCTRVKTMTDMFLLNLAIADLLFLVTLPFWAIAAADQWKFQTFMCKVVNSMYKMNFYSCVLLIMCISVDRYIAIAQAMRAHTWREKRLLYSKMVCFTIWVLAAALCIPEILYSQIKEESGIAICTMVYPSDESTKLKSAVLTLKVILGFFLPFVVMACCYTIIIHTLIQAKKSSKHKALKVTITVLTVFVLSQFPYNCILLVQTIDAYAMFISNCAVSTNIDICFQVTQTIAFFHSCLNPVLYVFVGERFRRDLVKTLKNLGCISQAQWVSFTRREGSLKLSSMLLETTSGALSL

## Human recombinant CCL25 (from UniProt O15444 24-150) (ligand)
  impairment of migratory response to CCL25 after CCR9 siRNA, melanoma line ML: 76%
  impairment of migratory response to CCL25 after CCR9 siRNA, melanoma line MP: 63%
